In article PMC9945441:
Several values for one entry are separate records, joined by “and”; a condition that tells them apart may be missing. Identical values can stand only once.

What was measured:
[1] = target: Thermodesulfatator indicus HARP, recombinant (Thermodesulfatator indicus); experiment: mass photometry
[2] = target: Thermodesulfatator indicus HARP, recombinant (Thermodesulfatator indicus); experiment: SEC

- stoichiometry N [1]: 2 and 4
- stoichiometry N [2]: < 12
Substance: Thermodesulfatator indicus HARP, recombinant (enzyme)
